Publication PMC9482650, “Quantitative fragmentomics allow affinity mapping of interactomes” (Nature Communications, 2022)

T1: APBA2_1, Q99767
T1 sequence (Q99767 563-664, limits assumed, looked up): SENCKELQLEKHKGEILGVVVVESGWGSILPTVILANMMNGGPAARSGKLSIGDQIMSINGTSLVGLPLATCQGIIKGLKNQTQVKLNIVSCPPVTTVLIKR

T2: APBA2_2, Q99767
T2 sequence (Q99767 654-744, limits assumed, looked up): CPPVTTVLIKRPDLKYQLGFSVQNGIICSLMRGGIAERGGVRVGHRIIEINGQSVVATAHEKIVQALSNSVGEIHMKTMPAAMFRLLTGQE

T3: ARHGEF11, O15085
T3 sequence (O15085 42-136, limits assumed, looked up): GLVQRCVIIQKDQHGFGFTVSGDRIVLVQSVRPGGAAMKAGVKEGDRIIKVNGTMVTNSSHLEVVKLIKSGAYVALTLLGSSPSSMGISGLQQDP

T4: DFNB31_1, Q9P202
T4 sequence (Q9P202 135-233, limits assumed, looked up): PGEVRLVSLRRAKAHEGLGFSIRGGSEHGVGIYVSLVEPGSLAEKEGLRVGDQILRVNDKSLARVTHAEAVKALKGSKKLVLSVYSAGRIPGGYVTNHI

T5: DLG3_3, Q92796
T5 sequence (Q92796 374-475, limits assumed, looked up): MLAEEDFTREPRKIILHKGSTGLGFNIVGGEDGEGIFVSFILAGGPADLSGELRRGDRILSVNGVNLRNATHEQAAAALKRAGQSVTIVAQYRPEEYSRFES

T6: GRIP1_2, Q9Y3R0
T6 sequence (Q9Y3R0 145-248, limits assumed, looked up): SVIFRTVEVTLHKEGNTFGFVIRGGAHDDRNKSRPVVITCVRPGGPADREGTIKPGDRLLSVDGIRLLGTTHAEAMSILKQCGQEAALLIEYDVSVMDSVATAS

T7: GRIP1_3, Q9Y3R0
T7 sequence (Q9Y3R0 247-346, limits assumed, looked up): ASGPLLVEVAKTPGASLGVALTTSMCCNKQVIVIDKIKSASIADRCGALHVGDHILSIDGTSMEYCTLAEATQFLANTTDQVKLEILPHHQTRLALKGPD

T8: GRIP1_7, Q9Y3R0
T8 sequence (Q9Y3R0 999-1096, limits assumed, looked up): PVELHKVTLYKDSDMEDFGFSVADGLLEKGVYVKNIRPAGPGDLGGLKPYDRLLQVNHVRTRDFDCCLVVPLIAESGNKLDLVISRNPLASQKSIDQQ

T9: LNX2_3, Q8N448
T9 sequence (Q8N448 463-564, limits assumed, looked up): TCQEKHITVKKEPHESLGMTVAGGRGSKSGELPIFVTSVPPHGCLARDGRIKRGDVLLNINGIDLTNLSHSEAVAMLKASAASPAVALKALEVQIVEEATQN

T10: MPP2, Q14168
T10 sequence (Q14168 180-250, limits assumed, looked up): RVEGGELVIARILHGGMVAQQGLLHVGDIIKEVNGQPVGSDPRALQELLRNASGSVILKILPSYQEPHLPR

T11: MPP6, Q9NZW5
T11 sequence (Q9NZW5 125-219, limits assumed, looked up): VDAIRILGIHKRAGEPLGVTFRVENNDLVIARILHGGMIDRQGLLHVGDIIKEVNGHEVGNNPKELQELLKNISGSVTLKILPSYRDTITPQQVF

T12: NHERF3_4, Q5T2W1
T12 sequence (Q5T2W1 373-468, limits assumed, looked up): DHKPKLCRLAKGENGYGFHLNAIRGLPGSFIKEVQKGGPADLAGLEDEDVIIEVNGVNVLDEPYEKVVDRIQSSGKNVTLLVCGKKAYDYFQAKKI

T13: SNTB1, Q13884
T13 sequence (Q13884 107-205, limits assumed, looked up): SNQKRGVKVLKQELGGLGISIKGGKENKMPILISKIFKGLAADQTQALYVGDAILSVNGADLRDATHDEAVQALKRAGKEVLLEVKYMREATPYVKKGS


Tests used:
Assay in all cases: holdup assay
Set-up in all cases: key: below the threshold = too weak to quantify, mostly under pKd 3.1 to 4
Conditions in all cases: plain residues with an end cap or a label only (N-terminal biotin on a linker: ado-ado)
APBA2_1, Q99767 = biological target: T1, APBA2_1, Q99767
APBA2_2, Q99767 = biological target: T2, APBA2_2, Q99767
ARHGEF11, O15085 = biological target: T3, ARHGEF11, O15085
CASK, O14936 = biological target: CASK, O14936
Sequence of CASK, O14936 (O14936 487-570): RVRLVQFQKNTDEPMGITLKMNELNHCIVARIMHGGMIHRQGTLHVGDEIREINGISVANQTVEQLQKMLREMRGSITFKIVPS

DFNB31_1, Q9P202 = biological target: T4, DFNB31_1, Q9P202
DLG1_3, Q12959 = biological target: DLG1_3, Q12959
Sequence of DLG1_3, Q12959 (Q12959 457-571): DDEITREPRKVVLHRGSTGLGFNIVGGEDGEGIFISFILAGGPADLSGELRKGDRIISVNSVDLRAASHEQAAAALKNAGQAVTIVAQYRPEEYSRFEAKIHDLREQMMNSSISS

DLG3_3, Q92796 = biological target: T5, DLG3_3, Q92796
DLG4_1, P78352 = biological target: DLG4_1, P78352
Sequence of DLG4_1, P78352 (P78352 62-152): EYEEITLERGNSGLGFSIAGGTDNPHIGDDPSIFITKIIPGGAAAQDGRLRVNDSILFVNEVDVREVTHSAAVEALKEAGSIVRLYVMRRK

GIPC2, Q8TF65 = biological target: GIPC2, Q8TF65
Sequence of GIPC2, Q8TF65 (Q8TF65 112-203): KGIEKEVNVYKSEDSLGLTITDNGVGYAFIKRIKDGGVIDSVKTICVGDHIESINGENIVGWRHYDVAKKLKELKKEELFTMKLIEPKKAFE

GORASP2, Q9H8Y8 = biological target: GORASP2, Q9H8Y8
GRID2IP_1, A4D2P6 = biological target: GRID2IP_1, A4D2P6
Sequence of GRID2IP_1, A4D2P6 (A4D2P6 1-87): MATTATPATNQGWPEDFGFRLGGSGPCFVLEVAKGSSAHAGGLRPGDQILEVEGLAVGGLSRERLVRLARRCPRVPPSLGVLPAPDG

GRIP1_2, Q9Y3R0 = biological target: T6, GRIP1_2, Q9Y3R0
GRIP1_3, Q9Y3R0 = biological target: T7, GRIP1_3, Q9Y3R0
GRIP1_7, Q9Y3R0 = biological target: T8, GRIP1_7, Q9Y3R0
IL16_4, Q14005 = biological target: IL16_4, Q14005
Sequence of IL16_4, Q14005 (Q14005 1229-1329): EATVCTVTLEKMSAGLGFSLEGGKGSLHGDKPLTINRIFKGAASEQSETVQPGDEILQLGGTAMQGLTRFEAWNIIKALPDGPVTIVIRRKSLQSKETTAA

LNX1_3, Q8TBB1 = biological target: LNX1_3, Q8TBB1
Sequence of LNX1_3, Q8TBB1 (Q8TBB1 500-596): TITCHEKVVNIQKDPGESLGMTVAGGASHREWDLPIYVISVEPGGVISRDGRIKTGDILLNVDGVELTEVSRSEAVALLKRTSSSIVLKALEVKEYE

LNX2_3, Q8N448 = biological target: T9, LNX2_3, Q8N448
MAST2, Q6P0Q8 = biological target: MAST2, Q6P0Q8
Sequence of MAST2, Q6P0Q8 (Q6P0Q8 1099-1202): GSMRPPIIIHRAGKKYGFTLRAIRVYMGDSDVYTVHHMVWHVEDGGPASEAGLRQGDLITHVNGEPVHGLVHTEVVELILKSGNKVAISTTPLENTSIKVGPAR

MPP2, Q14168 = biological target: T10, MPP2, Q14168
MPP6, Q9NZW5 = biological target: T11, MPP6, Q9NZW5
NHERF3_4, Q5T2W1 = biological target: T12, NHERF3_4, Q5T2W1
NOS1, P29475 = biological target: NOS1, P29475
Sequence of NOS1, P29475 (P29475 9-101): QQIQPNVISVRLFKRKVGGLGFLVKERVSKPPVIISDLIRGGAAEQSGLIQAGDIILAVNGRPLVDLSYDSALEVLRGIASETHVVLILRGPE

SNTB1, Q13884 = biological target: T13, SNTB1, Q13884
TJP1_3, Q07157 = biological target: TJP1_3, Q07157
Sequence of TJP1_3, Q07157 (Q07157 416-512): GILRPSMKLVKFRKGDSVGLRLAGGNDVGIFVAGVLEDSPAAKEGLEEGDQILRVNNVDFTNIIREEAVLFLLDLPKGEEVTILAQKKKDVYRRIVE

Row | pKd (APBA2_1, Q99767) | pKd (APBA2_2, Q99767) | pKd (ARHGEF11, O15085) | pKd (CASK, O14936) | pKd (DFNB31_1, Q9P202) | pKd (DLG1_3, Q12959) | pKd (DLG3_3, Q92796) | pKd (DLG4_1, P78352) | pKd (GIPC2, Q8TF65) | pKd (GORASP2, Q9H8Y8) | pKd (GRID2IP_1, A4D2P6) | pKd (GRIP1_2, Q9Y3R0) | pKd (GRIP1_3, Q9Y3R0) | pKd (GRIP1_7, Q9Y3R0) | pKd (IL16_4, Q14005) | pKd (LNX1_3, Q8TBB1) | pKd (LNX2_3, Q8N448) | pKd (MAST2, Q6P0Q8) | pKd (MPP2, Q14168) | pKd (MPP6, Q9NZW5) | Binder | other results
1 | below the threshold | below the threshold | below the threshold | below the threshold | below the threshold | below the threshold | below the threshold | below the threshold | below the threshold | below the threshold | below the threshold | below the threshold | below the threshold | below the threshold | below the threshold | below the threshold | below the threshold | 5.08 | below the threshold | below the threshold | EKCGKEFSEF [PRKACA, P17612] | pKd (NHERF3_4, Q5T2W1): below the threshold; pKd (NOS1, P29475): below the threshold; pKd (SNTB1, Q13884): below the threshold; pKd (TJP1_3, Q07157): below the threshold
2 | below the threshold | below the threshold | below the threshold | below the threshold | below the threshold | below the threshold | below the threshold | below the threshold | below the threshold | 3.93 | below the threshold | below the threshold | below the threshold | below the threshold | below the threshold | below the threshold | below the threshold | 3.82 | below the threshold | below the threshold | QKAPTKEFYA [SDC2, P34741] | pKd (NHERF3_4, Q5T2W1): 3.82; pKd (NOS1, P29475): 3.83; pKd (SNTB1, Q13884): below the threshold; pKd (TJP1_3, Q07157): below the threshold
3 | below the threshold | below the threshold | below the threshold | below the threshold | below the threshold | below the threshold | below the threshold | below the threshold | below the threshold | 4.44 | below the threshold | below the threshold | below the threshold | below the threshold | below the threshold | below the threshold | below the threshold | 4.14 | below the threshold | below the threshold | EDLEDEWEVI [TECPR2, O15040] | pKd (NHERF3_4, Q5T2W1): below the threshold; pKd (NOS1, P29475): below the threshold; pKd (SNTB1, Q13884): 3.68; pKd (TJP1_3, Q07157): below the threshold
4 | below the threshold | below the threshold | below the threshold | below the threshold | below the threshold | below the threshold | below the threshold | 3.7 | below the threshold | below the threshold | below the threshold | below the threshold | below the threshold | below the threshold | below the threshold | below the threshold | below the threshold | 4.79 | below the threshold | below the threshold | QLSFNTDTLC [ABCA2, Q9BZC7] | pKd (NHERF3_4, Q5T2W1): below the threshold; pKd (NOS1, P29475): 3.65; pKd (SNTB1, Q13884): 3.59; pKd (TJP1_3, Q07157): below the threshold
